Here are results for 1 compound from patent EP4631959A2, “NOVEL MINIGASTRIN-DERIVED CHOLECYSTOKININ 2 RECEPTOR BINDING MOLECULES FOR IMAGING AND TARGETED RADIOTHERAPY” (priority 2022, dated 2024).

SMILES strings stand for the structures. Where two headings read alike, the source gives them in different places. Starred links: 1 amine or outer side, 2 acyl side, 3 side chain; linkers in the order of their positions; H or OH if unused. Non-standard residues stand in square brackets, D forms with d. Residues, ends and D or L forms follow the SMILES beside them. *: point of attachment. Benzoyl(4-SiFtBu2) = CC(C)(C)[Si](F)(c1ccc(C(=O)*)cc1)C(C)(C)C; DOTA = O=C(O)CN1CCN(CC(=O)O)CCN(CC(=O)*)CCN(CC(=O)O)CC1; d(γGlu) = O=C(O)[C@@H](CCC(=O)[*:2])N[*:1]; 1Nal = N[C@@H](Cc1cccc2ccccc12)C(=O)O; Hyp = O=C(O)[C@@H]1C[C@@H](O)CN1; NMeNle = CCCC[C@H](NC)C(=O)O; PEG4 = NCCOCCOCCOCCOCCC(=O)O; dDap = NC[C@@H](N)C(=O)O

The data set is described as follows: Biodistribution in AR4-2J tumor-bearing CB17-SCID mice. Type of data set: in vivo. Particulars: female, CB17-SCID, mouse, in vivo, iv, 100 pmol, total radioactivity, 100 pmol; for tissue uptake at 1 h: 1 h p.i.; for tissue uptake at 2 h: 2 h p.i.; for tissue uptake at 4 h: 4 h p.i. How it is done: All animal experiments were conducted in accordance with general animal welfare regulations in Germany (German animal protection act, in the edition of the announcement, dated May 18th, 2006, as amended by Article 280 of June 19th 2020, approval no. ROB-55.2-1-2532.Vet_02-18-109 by the General Administration of Upper Bavaria) and the institutional guidelines for the care and use of animals. CB17-SCID mice of both genders (Charles River Laboratories International Inc., Sulzfeld, Germany) were let to acclimate at the in-house animal facility at least for one week before inoculation was performed. To establish tumor xenografts, AR4-2J cells (5.0 × 10^6 cells per 200 µL) were suspended in a 1/1 mixture (v/v) of Dulbecco modified Eagle medium / Nutrition Mixture F-12 with Glutamax-I (1/1) and Cultrex® Basement Membrane Matrix Type 3 (Trevigen, Gaithersburg, MD, USA) and inoculated subcutaneously onto the right shoulder of 6-10 weeks old CB17-SCID mice (Charles River, Sulzfeld, Germany). Mice were used for experiments when tumors had grown to a volume of 150-300 mm^3 (1-2 weeks after inoculation). Exclusion criteria for animals from an experiment were either a weight loss higher than 20%, a tumor size above 1,500 mm^3, an ulceration of the tumor, a respiratory distress or a change of behavior. None of these criteria applied to any animal from the experiment. Neither randomization nor blinding was applied in the allocation of the experiments. Health status is SPF according to FELASA.
Approximately 1-5 MBq (100 pmol) of the radiolabeled minigastrin analogues were injected into the tail vein of AR4-2J tumor-bearing female CB17-SCID mice and sacrificed at 1 to 24 h post injection (n = 4-5). Selected organs were removed, weighted and measured in a γ-counter.

The mark [1] stands for this setting: read-out: activity levels in the blood.
Where [2] appears, read: read-out: activity levels in the tumor.

As to `CCCC[C@@H](C(=O)N[C@@H](CC(=O)O)C(=O)N[C@@H](Cc1cccc2ccccc12)C(N)=O)N(C)C(=O)[C@H](Cc1c[nH]c2ccccc12)NC(=O)CCOCCOCCOCCOCCNC(=O)CC[C@@H](NC(=O)[C@@H]1C[C@@H](O)CN1C(=O)[C@@H]1C[C@@H](O)CN1C(=O)[C@@H]1C[C@@H](O)CN1C(=O)[C@@H]1C[C@@H](O)CN1C(=O)[C@@H]1C[C@@H](O)CN1C(=O)[C@@H]1C[C@@H](O)CN1C(=O)CC[C@@H](NC(=O)[C@@H](CNC(=O)c1ccc([Si](F)(C(C)(C)C)C(C)(C)C)cc1)NC(=O)CN1CCN(CC(=O)O)CCN(CC(=O)O)CCN(CC(=O)O)CC1)C(=O)O)C(=O)O` [DOTA-rhCCK-84, DOTA-dap(SiFA)-γ-glu-(Hyp)6-γ-glu-(PEG)3-Trp-(N-Me)Nle-Asp-1-Nal-NH2] ({DOTA}-[dDap](Benzoyl(4-SiFtBu2))[d(γGlu)][Hyp][Hyp][Hyp][Hyp][Hyp][Hyp][d(γGlu)][PEG4]W[NMeNle]D[1Nal]-NH2), under setting [1], the tissue uptake at 1 h was 11.3 ± 1.3 %ID/g, the tissue uptake at 2 h amounted to 3.71 ± 0.46 %ID/g and the tissue uptake at 4 h was 1.14 ± 0.18 %ID/g. Moreover, the tissue uptake at 1 h (read-out: tumor uptake) came out at 36.3 ± 3.7 %ID/g. For the same compound, under setting [2], the tissue uptake at 2 h stood at 35 ± 2.9 %ID/g and the tissue uptake at 4 h came out at 34 ± 3.6 %ID/g. For the same compound, the tissue uptake at 24 h (24 h p.i., read-out: activity levels in the kidneys) was less than 10 %ID/g.
